Article PMC10334784 (Proceedings of the National Academy of Sciences of the …, 2023)

B1: HCoV-OC43 nucleocapsid (N) protein, 2X-StrepTag tagged (natural protein)
chain: MSFTPGKQSSSRASSGNRSGNGILKWADQSDQVRNVQTRGRRAQPKQTATSQQPSGGNVVPYYSWFSGITQFQKGKEFEFVEGQGPPIAPGVPATEAKGYWYRHNRGSFKTADGNQRQLLPRWYFYYLGTGPHAKDQYGTDIDGVYWVASNQADVNTPADIVDRDPSSDEAIPTRFPPGTVLPQGYYIEGSGRSAPNSRSTSRTSSRASSAGSRSRANSGNRTPTSGVTPDMADQIASLVLAKLGKDATKPQQVTKHTAKEVRQKILNKPRQKRSPNKQCTVQQCFGKRGPNQNFGGGEMLKLGTSDPQFPILAELAPTAGAFFFGSRLELAKVQNLSGNPDEPQKDVYELRYNGAIRFDSTLSGFETIMKVLNENLNAYQQQDGMMNMSPKPQRQRGHKNGQGENDNISVAVPKSRVQQNKSRELTAEDISLLKKMDEPYTEDTSEI

Each binder was assayed against B1 (assay: BLI).

| Binder | Kd | koff | kon |
| --- | --- | --- | --- |
| CCL28 (ligand) SEAILPIASSCCTEVSHHISRRLLERVNMCRIQRADGDCDLAAVILHVKRRRICVSPHNHTVKQWMKVQAAKKNGKGNVCHRKKHHGKRNSNRAHQGKHETYGHKTPY | 27 nM | 0.0015 s⁻¹ | 60000 M⁻¹ s⁻¹ |
| IL27 (complex) chain 1: FPRPPGRPQLSLQELRREFTVSLHLARKLLSEVRGQAHRFAESHLPGVNLYLLPLGEQLPDVSLTFQAWRRLSDPERLCFISTTLQPFHALLGGLGTQGRWTNMERMQLWAMRLDLRDLQRHLRFQVLAAGFNLPEEEEEEEEEEEEERKGLLPGALGSALQGPAQVSWPQLLSTYRLLHSLELVLSRAVRELLLLSKAGHSVWPLGFPTLSPQP chain 2: RKGPPAALTLPRVQCRASRYPIAVDCSWTLPPAPNSTSPVSFIATYRLGMAARGHSWPCLQQTPTSTSCTITDVQLFSMAPYVLNVTAVHPWGSSSSFVPFITEHIIKPDPPEGVRLSPLAERQLQVQWEPPGSWPFPEIFSLKYWIRYKRQGAARFHRVGPIEATSFILRAVRPRARYYVQVAAQDLTDYGELSDWSLPATATMSLGK | 55 nM | 0.0024 s⁻¹ | 51000 M⁻¹ s⁻¹ |
| CCL26 (ligand) TRGSDISKTCCFQYSHKPLPWTWVRSYEFTSNSCSQRAVIFTTKRGKKVCTHPRKKWVQKYISLLKTPKQL | 620 nM | 0.014 s⁻¹ | 20000 M⁻¹ s⁻¹ |
| CCL11 (ligand) not shown | 1400 nM | 0.021 s⁻¹ | 17000 M⁻¹ s⁻¹ |
| CXCL13 (ligand) VLEVYYTSLRCRCVQESSVFIPRRFIDRIQILPRGNGCPRKEIIVWKKNKSIVCVDPQAEWIQRMMEVLRKRSSSTLPVPVFKRKIP | 140 nM | 0.0046 s⁻¹ | 44000 M⁻¹ s⁻¹ |
| CCL5 (ligand) SPYSSDTTPCCFAYIARPLPRAHIKEYFYTSGKCSNPAVVFVTRKNRQVCANPEKKWVREYINSLEMS | 56000 nM | 0.015 s⁻¹ | 2100 M⁻¹ s⁻¹ |
| CXCL11 (ligand) FPMFKRGRCLCIGPGVKAVKVADIEKASIMYPSNNCDKIEVIITLKENKGQRCLNPKSKQARLIIKKVERKNF | 730 nM | 0.012 s⁻¹ | 18000 M⁻¹ s⁻¹ |
| CXCL14 (ligand) SKCKCSRKGPKIRYSDVKKLEMKPKYPHCEEKMVIITTKSVSRYRGQEHCLHPKLQSTKRFIKWYNAWNEKRRVYEE | 580 nM | 0.0063 s⁻¹ | 12000 M⁻¹ s⁻¹ |
| CXCL9 (ligand) TPVVRKGRCSCISTNQGTIHLQSLKDLKQFAPSPSCEKIEIIATLKNGVQTCLNPDSADVKELIKKWEKQVSQKKKQKNGKKHQKKKVLKVRKSQRSRQKKTT | 29 nM | 0.0022 s⁻¹ | 82000 M⁻¹ s⁻¹ |
| CCL13 (ligand) not shown | 1600 nM | 0.025 s⁻¹ | 19000 M⁻¹ s⁻¹ |
| CCL21 (ligand) SDGGAQDCCLKYSQRKIPAKVVRSYRKQEPSLGCSIPAILFLPRKRSQAELCADPKELWVQQLMQHLDKTPSPQKPAQGCRKDRGASKTGKKGKGSKGCKRTERSQTPKGP | 290 nM | 0.012 s⁻¹ | 67000 M⁻¹ s⁻¹ |
| CCL25 (ligand) QGVFEDCCLAYHYPIGWAVLRRAWTYRIQEVSGSCNLPAAIFYLPKRHRKVCGNPKSREVQRAMKLLDARNKVFAKLHHNTQTFQAGPHAVKKLSSGNSKLSSSKFSNPISSSKRNVSLLISANSGL | 610 nM | 0.0048 s⁻¹ | 8300 M⁻¹ s⁻¹ |

These binders were tested against CXCL12α (human, UniProt P48061-2 22-89) (assay: BLI).
CXCL12α, sequence (P48061 22-89): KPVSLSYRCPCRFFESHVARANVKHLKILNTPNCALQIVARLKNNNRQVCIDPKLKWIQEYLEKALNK

| Binder | Kd | koff | kon |
| --- | --- | --- | --- |
| B1 | 0.46 nM | 3.7e-05 s⁻¹ | 62000 M⁻¹ s⁻¹ |
